Starred links: 1 amine or outer side, 2 acyl side, 3 side chain; linkers in the order of their positions; H or OH if unused. Non-standard residues stand in square brackets, D forms with d. Groups on a side chain read outwards from the residue. No end group written: not given here. *: point of attachment. C18 diacid = O=C(O)CCCCCCCCCCCCCCCCC(=O)*; γGlu = O=C(O)[C@H](CCC(=O)[*:2])N[*:1]; Palmitoyl = CCCCCCCCCCCCCCCC(=O)*; AEEA = NCCOCCOCC(=O)O; Aib = CC(C)(N)C(=O)O
B1: SEQ ID NO: 140 (peptide)
peptide: IVLSLD[dV]PIKLK([AEEA-AEEA-γGlu-C18 diacid])QILLEQARQK[Aib]QRAQAEKNKRILERV-NH2
modifications: N-terminus assumed
SMILES: CC[C@H](C)[C@H](N)C(=O)N[C@H](C(=O)N[C@@H](CC(C)C)C(=O)N[C@@H](CO)C(=O)N[C@@H](CC(C)C)C(=O)N[C@@H](CC(=O)O)C(=O)N[C@@H](C(=O)N1CCC[C@H]1C(=O)N[C@H](C(=O)N[C@@H](CCCCN)C(=O)N[C@@H](CC(C)C)C(=O)N[C@@H](CCCCNC(=O)COCCOCCNC(=O)COCCOCCNC(=O)CC[C@H](NC(=O)CCCCCCCCCCCCCCCCC(=O)O)C(=O)O)C(=O)N[C@@H](CCC(N)=O)C(=O)N[C@H](C(=O)N[C@@H](CC(C)C)C(=O)N[C@@H](CC(C)C)C(=O)N[C@@H](CCC(=O)O)C(=O)N[C@@H](CCC(N)=O)C(=O)N[C@@H](C)C(=O)N[C@@H](CCCNC(=N)N)C(=O)N[C@@H](CCC(N)=O)C(=O)N[C@@H](CCCCN)C(=O)NC(C)(C)C(=O)N[C@@H](CCC(N)=O)C(=O)N[C@@H](CCCNC(=N)N)C(=O)N[C@@H](C)C(=O)N[C@@H](CCC(N)=O)C(=O)N[C@@H](C)C(=O)N[C@@H](CCC(=O)O)C(=O)N[C@@H](CCCCN)C(=O)N[C@@H](CC(N)=O)C(=O)N[C@@H](CCCCN)C(=O)N[C@@H](CCCNC(=N)N)C(=O)N[C@H](C(=O)N[C@@H](CC(C)C)C(=O)N[C@@H](CCC(=O)O)C(=O)N[C@@H](CCCNC(=N)N)C(=O)N[C@H](C(N)=O)C(C)C)[C@@H](C)CC)[C@@H](C)CC)[C@@H](C)CC)C(C)C)C(C)C
B2: SEQ ID NO: 141 (peptide)
peptide: IVLSLD[dV]PIKLK([AEEA-AEEA-γGlu-C18 diacid])QILLKQARQK[Aib]QRAQAEKNKRILERV-NH2
modifications: N-terminus assumed
SMILES: CC[C@H](C)[C@H](N)C(=O)N[C@H](C(=O)N[C@@H](CC(C)C)C(=O)N[C@@H](CO)C(=O)N[C@@H](CC(C)C)C(=O)N[C@@H](CC(=O)O)C(=O)N[C@@H](C(=O)N1CCC[C@H]1C(=O)N[C@H](C(=O)N[C@@H](CCCCN)C(=O)N[C@@H](CC(C)C)C(=O)N[C@@H](CCCCNC(=O)COCCOCCNC(=O)COCCOCCNC(=O)CC[C@H](NC(=O)CCCCCCCCCCCCCCCCC(=O)O)C(=O)O)C(=O)N[C@@H](CCC(N)=O)C(=O)N[C@H](C(=O)N[C@@H](CC(C)C)C(=O)N[C@@H](CC(C)C)C(=O)N[C@@H](CCCCN)C(=O)N[C@@H](CCC(N)=O)C(=O)N[C@@H](C)C(=O)N[C@@H](CCCNC(=N)N)C(=O)N[C@@H](CCC(N)=O)C(=O)N[C@@H](CCCCN)C(=O)NC(C)(C)C(=O)N[C@@H](CCC(N)=O)C(=O)N[C@@H](CCCNC(=N)N)C(=O)N[C@@H](C)C(=O)N[C@@H](CCC(N)=O)C(=O)N[C@@H](C)C(=O)N[C@@H](CCC(=O)O)C(=O)N[C@@H](CCCCN)C(=O)N[C@@H](CC(N)=O)C(=O)N[C@@H](CCCCN)C(=O)N[C@@H](CCCNC(=N)N)C(=O)N[C@H](C(=O)N[C@@H](CC(C)C)C(=O)N[C@@H](CCC(=O)O)C(=O)N[C@@H](CCCNC(=N)N)C(=O)N[C@H](C(N)=O)C(C)C)[C@@H](C)CC)[C@@H](C)CC)[C@@H](C)CC)C(C)C)C(C)C
B3: SEQ ID NO: 142 (peptide)
peptide: IVLSLD[dV]PIKLK([AEEA-AEEA-γGlu-C18 diacid])QILLEQARQK[Aib]QREQAEKNKRILERV-NH2
modifications: N-terminus assumed
SMILES: CC[C@H](C)[C@H](N)C(=O)N[C@H](C(=O)N[C@@H](CC(C)C)C(=O)N[C@@H](CO)C(=O)N[C@@H](CC(C)C)C(=O)N[C@@H](CC(=O)O)C(=O)N[C@@H](C(=O)N1CCC[C@H]1C(=O)N[C@H](C(=O)N[C@@H](CCCCN)C(=O)N[C@@H](CC(C)C)C(=O)N[C@@H](CCCCNC(=O)COCCOCCNC(=O)COCCOCCNC(=O)CC[C@H](NC(=O)CCCCCCCCCCCCCCCCC(=O)O)C(=O)O)C(=O)N[C@@H](CCC(N)=O)C(=O)N[C@H](C(=O)N[C@@H](CC(C)C)C(=O)N[C@@H](CC(C)C)C(=O)N[C@@H](CCC(=O)O)C(=O)N[C@@H](CCC(N)=O)C(=O)N[C@@H](C)C(=O)N[C@@H](CCCNC(=N)N)C(=O)N[C@@H](CCC(N)=O)C(=O)N[C@@H](CCCCN)C(=O)NC(C)(C)C(=O)N[C@@H](CCC(N)=O)C(=O)N[C@@H](CCCNC(=N)N)C(=O)N[C@@H](CCC(=O)O)C(=O)N[C@@H](CCC(N)=O)C(=O)N[C@@H](C)C(=O)N[C@@H](CCC(=O)O)C(=O)N[C@@H](CCCCN)C(=O)N[C@@H](CC(N)=O)C(=O)N[C@@H](CCCCN)C(=O)N[C@@H](CCCNC(=N)N)C(=O)N[C@H](C(=O)N[C@@H](CC(C)C)C(=O)N[C@@H](CCC(=O)O)C(=O)N[C@@H](CCCNC(=N)N)C(=O)N[C@H](C(N)=O)C(C)C)[C@@H](C)CC)[C@@H](C)CC)[C@@H](C)CC)C(C)C)C(C)C
B4: SEQ ID NO: 143 (peptide)
peptide: FTLSLDVPTKIK([AEEA-AEEA-γGlu-C18 diacid])QILLKQEKQKKQRQKAKTNKQILERV-NH2
modifications: N-terminus assumed
SMILES: CC[C@H](C)[C@H](NC(=O)[C@H](CCC(N)=O)NC(=O)[C@H](CCCCN)NC(=O)[C@H](CC(N)=O)NC(=O)[C@@H](NC(=O)[C@H](CCCCN)NC(=O)[C@H](C)NC(=O)[C@H](CCCCN)NC(=O)[C@H](CCC(N)=O)NC(=O)[C@H](CCCNC(=N)N)NC(=O)[C@H](CCC(N)=O)NC(=O)[C@H](CCCCN)NC(=O)[C@H](CCCCN)NC(=O)[C@H](CCC(N)=O)NC(=O)[C@H](CCCCN)NC(=O)[C@H](CCC(=O)O)NC(=O)[C@H](CCC(N)=O)NC(=O)[C@H](CCCCN)NC(=O)[C@H](CC(C)C)NC(=O)[C@H](CC(C)C)NC(=O)[C@@H](NC(=O)[C@H](CCC(N)=O)NC(=O)[C@H](CCCCNC(=O)COCCOCCNC(=O)COCCOCCNC(=O)CC[C@H](NC(=O)CCCCCCCCCCCCCCCCC(=O)O)C(=O)O)NC(=O)[C@@H](NC(=O)[C@H](CCCCN)NC(=O)[C@@H](NC(=O)[C@@H]1CCCN1C(=O)[C@@H](NC(=O)[C@H](CC(=O)O)NC(=O)[C@H](CC(C)C)NC(=O)[C@H](CO)NC(=O)[C@H](CC(C)C)NC(=O)[C@@H](NC(=O)[C@@H](N)Cc1ccccc1)[C@@H](C)O)C(C)C)[C@@H](C)O)[C@@H](C)CC)[C@@H](C)CC)[C@@H](C)O)C(=O)N[C@@H](CC(C)C)C(=O)N[C@@H](CCC(=O)O)C(=O)N[C@@H](CCCNC(=N)N)C(=O)N[C@H](C(N)=O)C(C)C
B5: SEQ ID NO: 15 (peptide)
peptide: FTLSLDVPTKIK([γGlu-Palmitoyl])QKLFKQAKQKKQRQKAKTNAQILARV-NH2
modifications: N-terminus assumed
SMILES: CCCCCCCCCCCCCCCC(=O)N[C@@H](CCC(=O)NCCCC[C@H](NC(=O)[C@@H](NC(=O)[C@H](CCCCN)NC(=O)[C@@H](NC(=O)[C@@H]1CCCN1C(=O)[C@@H](NC(=O)[C@H](CC(=O)O)NC(=O)[C@H](CC(C)C)NC(=O)[C@H](CO)NC(=O)[C@H](CC(C)C)NC(=O)[C@@H](NC(=O)[C@@H](N)Cc1ccccc1)[C@@H](C)O)C(C)C)[C@@H](C)O)[C@@H](C)CC)C(=O)N[C@@H](CCC(N)=O)C(=O)N[C@@H](CCCCN)C(=O)N[C@@H](CC(C)C)C(=O)N[C@@H](Cc1ccccc1)C(=O)N[C@@H](CCCCN)C(=O)N[C@@H](CCC(N)=O)C(=O)N[C@@H](C)C(=O)N[C@@H](CCCCN)C(=O)N[C@@H](CCC(N)=O)C(=O)N[C@@H](CCCCN)C(=O)N[C@@H](CCCCN)C(=O)N[C@@H](CCC(N)=O)C(=O)N[C@@H](CCCNC(=N)N)C(=O)N[C@@H](CCC(N)=O)C(=O)N[C@@H](CCCCN)C(=O)N[C@@H](C)C(=O)N[C@@H](CCCCN)C(=O)N[C@H](C(=O)N[C@@H](CC(N)=O)C(=O)N[C@@H](C)C(=O)N[C@@H](CCC(N)=O)C(=O)N[C@H](C(=O)N[C@@H](CC(C)C)C(=O)N[C@@H](C)C(=O)N[C@@H](CCCNC(=N)N)C(=O)N[C@H](C(N)=O)C(C)C)[C@@H](C)CC)[C@@H](C)O)C(=O)O
B6: SEQ ID NO: 144 (peptide)
peptide: FTLSLDVPTKIK([AEEA-AEEA-γGlu-C18 diacid])QILLKQERQKKQRQKAKTNKQILERV-NH2
modifications: N-terminus assumed
SMILES: CC[C@H](C)[C@H](NC(=O)[C@H](CCC(N)=O)NC(=O)[C@H](CCCCN)NC(=O)[C@H](CC(N)=O)NC(=O)[C@@H](NC(=O)[C@H](CCCCN)NC(=O)[C@H](C)NC(=O)[C@H](CCCCN)NC(=O)[C@H](CCC(N)=O)NC(=O)[C@H](CCCNC(=N)N)NC(=O)[C@H](CCC(N)=O)NC(=O)[C@H](CCCCN)NC(=O)[C@H](CCCCN)NC(=O)[C@H](CCC(N)=O)NC(=O)[C@H](CCCNC(=N)N)NC(=O)[C@H](CCC(=O)O)NC(=O)[C@H](CCC(N)=O)NC(=O)[C@H](CCCCN)NC(=O)[C@H](CC(C)C)NC(=O)[C@H](CC(C)C)NC(=O)[C@@H](NC(=O)[C@H](CCC(N)=O)NC(=O)[C@H](CCCCNC(=O)COCCOCCNC(=O)COCCOCCNC(=O)CC[C@H](NC(=O)CCCCCCCCCCCCCCCCC(=O)O)C(=O)O)NC(=O)[C@@H](NC(=O)[C@H](CCCCN)NC(=O)[C@@H](NC(=O)[C@@H]1CCCN1C(=O)[C@@H](NC(=O)[C@H](CC(=O)O)NC(=O)[C@H](CC(C)C)NC(=O)[C@H](CO)NC(=O)[C@H](CC(C)C)NC(=O)[C@@H](NC(=O)[C@@H](N)Cc1ccccc1)[C@@H](C)O)C(C)C)[C@@H](C)O)[C@@H](C)CC)[C@@H](C)CC)[C@@H](C)O)C(=O)N[C@@H](CC(C)C)C(=O)N[C@@H](CCC(=O)O)C(=O)N[C@@H](CCCNC(=N)N)C(=O)N[C@H](C(N)=O)C(C)C

biological target: human corticotropin-releasing factor 2α (CRF2 α receptor) (human), Q13324; test: cell-based or functional assay
Sequence (Q13324 20-411): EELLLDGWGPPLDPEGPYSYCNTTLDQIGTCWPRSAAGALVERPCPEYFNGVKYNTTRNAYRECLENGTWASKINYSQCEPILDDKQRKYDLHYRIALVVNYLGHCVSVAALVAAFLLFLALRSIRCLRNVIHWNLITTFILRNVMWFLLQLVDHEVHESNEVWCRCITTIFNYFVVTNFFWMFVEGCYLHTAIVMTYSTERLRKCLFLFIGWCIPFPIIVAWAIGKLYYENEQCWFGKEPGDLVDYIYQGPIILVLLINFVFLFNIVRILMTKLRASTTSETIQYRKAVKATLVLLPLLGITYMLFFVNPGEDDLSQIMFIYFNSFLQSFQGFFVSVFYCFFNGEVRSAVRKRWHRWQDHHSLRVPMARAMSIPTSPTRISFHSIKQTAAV

Question: Which results are given for B1?
Answer: EC50 [nM], 0% HSA: 0.04 nM; EC50 [nM], 0.1% HSA: 1.27 nM

Question: Which results are given for B2?
Answer: EC50 [nM], 0% HSA: 0.03 nM; EC50 [nM], 0.1% HSA: 0.97 nM

Question: For B3, which EC50 [nM], 0% HSA is on record?
Answer: 0.05 nM

Question: And the EC50 [nM], 0.1% HSA?
Answer: 1.42 nM

Question: Which results are given for B4?
Answer: EC50 [nM], 0% HSA: 1.44 nM; EC50 [nM], 0.1% HSA: 93.8 nM

Question: With B5 as the binder, how does the EC50 [nM], 0% HSA read?
Answer: 0.88 nM

Question: Which EC50 [nM], 0% HSA does the source give for B6 here?
Answer: 1.36 nM

Question: And the EC50 [nM], 0.1% HSA?
Answer: 76.3 nM

From patent US12679878B2, “CRF2 receptor agonists and their use in therapy” (SANOFI, priority 2020, dated 2026)
